Here are results for 2 molecules from patent US7435574B2 (Degussa AG, priority 2001, dated 2008).

In data set [1] the target is NADH oxidase (NOX) from Lactobacillus brevis DSM 20054, wild type, SEQ ID NO:2 (Levilactobacillus brevis, UniProt Q03Q85). To be noted: higher NADH concentrations (up to 0.5 mM); photometric.
Data set [2] is described as follows: NAD+ regeneration coupled with R-specific alcohol dehydrogenase recADHG37D, oxidation of (R,S)-phenylethanol, GC analysis. The data set is classed as biochemical. To be noted: 50 mM (R,S)-phenylethanol, 2 mM NADH, pH 7.0, 1 U recADHG37D and 2 U NADH oxidase, FIG. 4. Here is the method:
This may be necessary for example if NAD-dependent dehydrogenases are used for the oxidation, as has been shown in a general way hereinbefore (reaction scheme 1).
(R,S)-phenylethanol was used as alcohol, and the reaction was carried out as a batch reaction.
As a control the same experiment was carried out, but without the addition of NADH oxidase.

A short description of data set [3]: determination of the KM value for NADH. The data set is classed as biochemical.
Data set [4] in a line: temperature stability of the NADH oxidase (storage at 30° C. and 42° C., residual activity). It counts as physicochemical. Here is the method:
In order to determine the temperature stability enzyme samples were stored at 30° C. and 42° C., samples were taken at various times, and the residual activity was measured. […] At 42° C. the enzyme deactivates initially (up to ca. 120 minutes) relatively quickly, following which it appears to be stable at ca. 50% residual activity over a relatively long time (at least 16 hours).

A short description of data set [5]: pH stability of the NADH oxidase (8 hours incubation in buffers, residual activity). It counts as physicochemical. Here is the method: The pH optimum was measured in the range pH 4.0 to 10.0. Different buffers were used depending on the pH value. As a check on the influence of the buffer, when changing the buffer this pH value was measured twice in the different buffers (pH 7.0 and pH 8.5). 0.1 M citric acid/Na2PO4 was used for the range pH 4.0-7.0, 0.1 M TEA was used for the range 7.0-8.5, and 0.1 M glycine/NaOH was used for the range pH 8.5-10.0.
At pH 8.5 the enzyme is still up to 100% stable after 8 hours in TEA/NaOH buffer as well as in glycine/NaOH buffer. The figure illustrates that the enzyme stable in the slightly alkaline range (pH 8-9) is also stable in a wider range. This range is useful for application purposes if the NADH oxidase for the oxidation is to be coupled with an NAD-dependent dehydrogenase, since the pH optimum of many dehydrogenases for the oxidation lies in a slightly alkaline range.

Substrate in data set [6]: NC(=O)C1=CN([C@@H]2O[C@H](COP(=O)(O)OP(=O)(O)OC[C@H]3O[C@@H](n4cnc5c(N)ncnc54)[C@H](O)[C@@H]3O)[C@@H](O)[C@H]2O)C=CC1
Put plainly: purified protein, by the assay type. To be noted: other: NADH varied 0.0013 to 0.52 mM, photometric, 340 nm, 30° C., 100 mM potassium phosphate pH 7.5, 1 mM DTT (standard test), enzyme purified by 4 chromatographic steps.

Data set [7] is described as follows: temperature optimum of the NADH oxidase. It counts as biochemical. To be noted: FIG. 3.

In general, Km refers to the substrate concentration at which the rate is half of its maximum.

For `NC(=O)C1=CN([C@@H]2O[C@H](COP(=O)(O)OP(=O)(O)OC[C@H]3O[C@@H](n4cnc5c(N)ncnc54)[C@H](O)[C@@H]3O)[C@@H](O)[C@H]2O)C=CC1` [NADH], the “excess inhibition by NADH” value in data set [1] is “weak excess inhibition”.

B1: NADH oxidase (NOX) from Lactobacillus brevis DSM 20054, wild type, SEQ ID NO:2 (Levilactobacillus brevis ATCC 367) (protein)
chain: MKVTVVGCTHAGTFAIKQILAEHPDAEVTVYERNDVISFLSCGIALYLGGKVADPQGLFYSSPEELQKLGANVQMNHNVLAIDPDQKTVTVEDLTSHAQTTESYDKLVMTSGSWPIVPKIPGIDSDRVKLCKNWAHAQALIEDAKEAKRITVIGAGYIGAELAEAYSTTGHDVTLIDAMDRVMPKYFDADFTDVIEQDYRDHGVQLALSETVESFTDSATGLTIKTDKNSYETDLAILCIGFRPNTDLLKGKVDMAPNGAIITDDYMRSSNPDIFAAGDSAAVHYNPTHQNAYIPLATNAVRQGILVGKNLVKPTVKYMGTQSSSGLALYDRTIVSTGLTLAAAKQQGVNAEQVIVEDNYRPEFMPSTEPVLMSLVFDPDTHRILGGALMSKYDVSQSANTLSVCIQNENTIDDLAMVDMLFQPNFDRPFNYLNILAQAAQAKVAQSVNA
As for B1, the “oxidation of the R-alcohol of (R,S)-phenylethanol in the coupled reaction” value in data set [2] was “almost completely oxidised”. The “excess (substrate) inhibition at higher NADH concentrations” value in data set [3] (NADH up to 0.5 mM) is reported as “only a weak excess inhibition”. Besides, the “NADH concentration at which maximum activity is reached” value in data set [3] (NADH varied from 0.0013 to 0.52 mM) is listed as 0.1 mM. In addition, the “time for which the enzyme is in practice stable” value in data set [4] (storage at 30° C.) is given as “ca. 400 minutes”. In addition, in data set [4] (storage at 30° C., after ca. 400 minutes), the “half-value time of deactivation” value was “ca. 18 hours”. Besides, in data set [4] (storage at 42° C., after initial deactivation (up to ca. 120 minutes), stable for at least 16 hours), the residual activity entry is “ca. 50%”. In data set [5] (8 hours incubation, FIG. 2), the “first stability optimum (pH)” value stood at 5.0 pH and the “second stability optimum (pH)” value amounted to 8.5 pH. In data set [5] (8 hours incubation, pH 5.5-7.5), the “stability in the range pH 5.5-7.5” value is “moderately stable”. The “stability (residual activity) after 8 hours at pH 8.5” value in data set [5] (pH 8.5, TEA/NaOH buffer as well as glycine/NaOH buffer, 8 hours) was “up to 100%”. In addition, in data set [6], the Km is 24 µM. In addition, the “temperature of maximum activity” value in data set [7] was determined as 40 °C.
